Experiment: label from the status in PepcDB records
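Note: failed if final PepcDB status was selected cloned or expressed and not failed if soluble or beyond.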

Sequence	protein production
MAKENEHFLKPDNQSPEESEQLDTVSMEPSQEIWNSTEQETSELQSDTFLSPATVRNSQTTDGYGQAEIVPATPSFMSAAGDSEEVGTPGRSLSEVFSASSLGQRSTRAADRESLQRHELGTNSFSLFSPEKEISFRNRKELEAPSGAAEEIERRVIWGTNVNVDECEQKIKKFLYEFTATTVQQDYEDGDGLQQAKPKPYYLELLTHANEMQYEVINIDLQHVFEFDSELYAYVVTYPTELIAIFDQTLQEVCKEMFATDDSSDIMSSGTSNFHAGRLITRMYNMKDTEIHSMREIDPSHIHQMIGVRGMVVRCSSVIPNMNRAFYSCNNCHWSLFVDIQRGKIEEPIQCDKCQARNSFMLIHNRSVFSDKQMIRIQETPETVPQGETPATMTIVAYDSLVDSARPGDQIEVTGILRAVSVRINPKQRSIRSVFRTYIDAIHILKGKQGRLSNSTEHMDTTSDYYPIGSDTSENALYYFERERSIREISQDPLLYDKLSRSIAPSIYGHEDLKKGILLQLFGGTRKDFSASGGGHFRSDIHVLLVGDPGTSKSLFLQYVHRIAPRGLYTSGRGSSAVGLTAYVTRDPDSNDMVLESGALVLSDKGICCIDEFDKMTDSTRSILHEAMEQQTVSIAKAGIICSLNARTSVLAAANPVESRYNPKLSVVDNIQLPPTLLSRFDLIYLILDNANPEEDKRLGNHITSLFSADTAVVHSDEDPLPSLEPATIHMPNSSHSFLDSTTLASYISYAREKVHPKLNDDAVQRLTKGYVEMRRMGNASKSWSGGIKTITATPRQLESLIRLSEAHAKMRLSDVVESQDVDEALRLVQVAMQQSAIDPITGTIDMDLITTGKSATKRSRIAKLGEAIFQYLQQTKTSDTAVRTSDVLMEVKRSSSMPFTEQDFDDAIHYLVEEERIFRVAGGLRVGTSW	failed
MTAPASSLDRFFGLRARGTTVRREILAGTTTFMTMAYILFVNPEILGSAAGAGHFAAILTSTALVAAVMTAAMGLFANLPLALASGMGLNAVVAFGLVLGKKLTYPQAMGVIVAEGVLITLLVATGLRQAVVRAVPMTLKRAIGIGIGLFLAIIGFKAAGFISAGGALLQLGPEGAAGRLTGFPVVLFALTLVFTAWLVSRGVRGALLIGIAVSTAVAVTAKAAFGGAGFAPHVANLPSSIFGLPDFSMLGQVDFSFVAVLGPLAASLAVFSIMLSDFFDTVGTVVAVGQEAKYLDEQGNFPRASTVLMVDSLAAIAGGLAGASSATTYVESAAGAASGGRTGLTSVTTAALFALCLFISPLAGIVPPQATGAVLVLVGYMMMRDVGAIAWDDPSESIPAFLTVTVMPFTYSITNGIGAGFVSYVLLKLAGGKAREVHPLMIGASVAFVVYFAIGG	failed
MGSTHHHHHHSSGRENLYFQGHMEEEMQRHIKLTPSQTTPVVLVVGDPGRVDKVKMLCDSYVDLAYNREYKSVECTYKGQKFLCVSHGVGSAGCAICFEELMNNGAKVIIRAGSCGSLQPTQMKRGDICICNAAVREDRVSHLMIYSDFPAVADFEVYDTLNKVAQELEVPVFNGISLSSDLYYPHKIIPTRLEDYSKANVAVVEMEVATLMVMGTLRKVKTGGIFIVDGCPLKWDEGDFDNNLVPEKLENMIKISLETCARLAKKY	not failed
MRIIIVGGGKVGYQVARQCAAWGCDVVLVENDRQKGEKIKGELGLQVVIGDGTKAHFLKKAGAEEADIVVAVTDDDQDNLVICQLAERQFKAKRTLALVNNPGNEKLFRWLGVNQVIGPASLILGLIQERVDMDSTAAMWMQGIKDLKMIQFKLGPEAPVLGRKIKTIPFPNECILVTVVRENTAIVPCGNTVLEEGDLVFALANPAVQAELERVLTGKNDN	failed
MEIMKKQNSQINEINKDEIFVVVPAFNEEKMIGETLKNLKKEGYKNIVVVDDGSMDKTSEIAKKEGVIVCRHILNRGLGGALGTGIKCALLYKPKIIITFDADGQHHPKDVEKVVKPVLFEGYDMAIGSRMMDKNELKNMPLVKRIGNFGLNFITYLMGGYFVTDSQSGLRAFSYEAAKKIIGDLKSDRYEVSSEFIILAKKHGLKLKEVPIKTIYTEYSMSRGTNVITGFKILFKLIMQKIF	failed
MNEQKNTAENTVNKQKDLETAGKTREKEDPKQLLLTASETDNYEDKLRIYDKALGLDPLYFDAWLQKGFVLDRLGRSNEALDCYNKALEIVPDHLGIKCLKGFAYSNLKDYEKAIECYDEVLKVNSEDVFSLFQKGSVLENLGRYGEAMEAYDRALEIDPADILIREKKMRLLGLIYKKGTLVDSPDSDFN	failed
MNIKIVFYVLGGLLRLLGLLMIVPLGVAYYYGESLTPFLVSIVITVLTGLILLSYKTDEDWMRKEGFAIVALGWLAVAVFGAIPFMLDGISPLNSLFEAMSAFTTTGSTILTDIESHPKGILFWRSMMQWLGGMGIIVLFIAVLPKFGVAGRQLFRAEAPGPTEDKLKPRIRETAKILWMVYFVISFAEVVALLLAGLSLYDAITHTFTTMACGGFSPYGTSIEAFRSPLVEYIITFFMFVSGANFALHYRAIYVDKDFLLKDDEFRFYTALTLAATGLLTLLLYRDINTGFFDSFRLAIFQVVSIMTTTGFATADFNFWSDSAKMVLLLIMFVGGCAGSTGGGIKVVRILMLLRHGRVELFKSLHPRAIRGVKFNNKNVPDEVINSIFSFVVIYLFIFMSSALILAVLGMDIITSTTASIATLGNIGPGLNVVGPMGTFDPIPPLGKLILIANMWIGRLEVYTVIVLFTPEFWNK	failed
MNSAALKSCLERENALVVEFLHALEAETEALMDRRAHESLQAAVQRKETLADDLAQLGAERDALLSGAGLASGPAGTDAAAAAHPELGPLWQALQANAAQAREHNQRNGTLIAVNLRHTQESLDALRQAAGTGAAATYDAQGRGKRGYSSA	not failed
MSMLANFDFASFFAVAAAIVIGLYVVLDGFDLGVGILFPFAPRVSDRDAMMATLEPFWDGNETWLVLGGMVLLGAFPLAFAILLPAFYVPLCLMLFGLVIRGVAFEFRSQGGRFQIVWSATFAAGSFIAAFCQGAVLGAFVGRSITVSDGAFAGGPFDWLGLFSIATGLGVVAAYGLLGACWLVWKTSGSTQNFGRELMLPTLLCAGAAIVLISVWTPFAKPQIAERWFAWPDALLLAPLPIIAVLAGIGILLTRWSEREWAPLALSLLLFVTSLAGLGASVWPEAIPGVMTIWQASSMHRTQVIVAGAVVIIGPIILAYIGYGYWLFRGKTKPVPEFPPR	failed
MEKASSPEKWLAKVSVTLTKAKPDEIWPLFTDFFNLHKWLPTLATCHGVHGNNGEQGCIRFCSGFSIGSNGVDSAARWSKEKLVAVNPVERVMRYEIVESNTGFESYVSTVKILPRGEDGCVIEWSFTVDPVRGLSLENLVKKYEKALEIITKNMEEDALRRRESSS	failed
MSSRCLGCGTKFDSEAGRPRCPACRWEPEEIGGIAAYAPQFANQGGGFEASYFKVLSELEATNFWFRSRNDLILWALRKYHPKFRSFLEIGCGTGFVLSGVTGKYPEAEIFGSEIFIEGLRFASQRLPNARLMQMDARAIPFAEEFEAIGAFDVLEHIEEDETVLQQMHAALKPKGTLLVTVPQHPWLWSPLDDYAHHCRRYTANELSRKVTAAGFTILRNTSFVSFLLPAMLASRLLSRNKSVDEIDVRTEMQLPSLLNNAFRWILRAESALIGTGFDFPLGGSRLLVARKM	failed
MRRCCGDLAASRGGCEPASRNLTRTRLTFAALGRINRPAEHDREDAMTRQEARDHEPRDQDAALSRRTLVRGLALGAAATMAGPALAQTGPAAPPTTITTPPRDFGPNGAPTTYFWDPDIIAVDPSFDDLAQPNTAIKRLYTGVLWAEGPAWSAQGRYLLWSDIPNNRQMRWSEDDGRISVFRSPSNNSNGNSFDFQGRQLSCEHLTRRVTRYEHDGTATVLCDNYNGKKLNSPNDVVAHPDGSYWFTDPPYGGQLYEGEPDAAGGPSNSGGKLNPRIGQPAGFTPGKRELPTNCYRIDPSGRVDLVVTEEQVPDPNGLCFSPDFKKLYVVSTGKGPGDSGPGGKGEIFVFDVGADNKLSNQKRFSDCTIDGVKCGPDGVRCDVNGNVWASSNAGRAVGYSGVTVWSPEGKLLGRIRLPEVCGNICFGGPKRNRLFMAASQSLYAVFTATQGAGPG	failed
DGKLYTLNYGKVSSIALDPIEKKPLFHFWPGSCAFSIGTVGCNMHCKHCQNWEISQADESFPYLQDATPESIVRLARHYECESIAYTYNEPTIWYEFVLDTAKLAKKEGLNNILVTNGYINEEPFRELAKYIDAMNIDIKAFNDKFYMKISSVPSGEPSRRTAVIAKKEFGIHVELTYLIIPTLNDNEEEIRRFARWVVEELGDDTPVHFSRFFPHYKLLNLPPTPIQTLEKAYKIAKEEGLKFVYLGNVPGHEGENTYCPRCGKLLIERWGFEILRYEIKDGKCKY	failed
MELKDYYAILGVQPTDDLKTIKTAYRRLARKYHPDVSKENDAEAKFKDLAEAWEVLKDEQRRAEYDQLWQHRNDPGFGRQRQTHEQSYSQQDFDDIFSSMFGQQAHQRRRQHAARGHDLEIEVAVFLEETLAEQTRTISYNLPVYNVFGMIESETPKTLNVKIPAGVVDGQRIRLKGQGTPGENGGPNGDLWLVIHIAPHPLFDIVGHNLEIVLPLAPWEAALGAKVTVPTLKESILLTVPPGSQAGQRLRIKGKGLVSKTHTGDLFAVIKIVMPTKPDEKARELWQQLAAAEASFDPRKTWGKA	not failed
MYALVDAVSFYASAEKVFDPSIRNKPVVVLTNNDGCICAVCPIARRLGIPKFIPYFQVKSLLEKHGVVVRSSNYELYADLSERMMNVIGRFCDNQYIYSIDESFLYFDHYESCINDWHEYGHKIRKAIWKETRLPVGVGFGETATLSKAANHAAKKLSGFNGVAVINSAVSRDKILKRMAVDEVWGIGRKISKRLGLEGINNAAQLAEQDPKHIRKQFSVVTERTVNELNGISCLSWDEVKSPKKEIFSTRSFGQRITTKNELRSALVTHAAIVGRKVRRQNSLIKKLMIFASNSPHDDLYYKQSMVFPFIIATENTCEMARAVNQVIDSIYKAGIKFYRCGVGAIELNSKTFIQPDLFMPDHTNSNVMKCLDNVNHRYGDSTLKLAAEGHHEKWQMRRAFLSPQYTSQWRDIPKIQC	failed
MNYRLIPALFLIVMGALFLLDNLGLAHMDVGNLIATWWPVFLIAAGVRQLLRYRQRAAATC	failed
MMFLHGSRQAVIAALVGLVITVTAFSYLRYQENQVVHDALEAETYNLQRDIRQSLVSHLFVAELLAREWERSDLSIEERWKENADIVTLYYQNVQGITWLNDELDIELIYPQNEQPELLGTPFAKTPLLEKLKASEGNRHAMMGPAGNLGRISSDIAIFVRVEQQDQTHGFLGFVISLQSLFNNVVRSNISEGFQLSVRSDNDILYQFAGDTSLREEWSHFHSLQLVGNSWELSVWPTAGHLEQLRGGISLAALIAGLLVTSMLTFVLYILGQSRFKAQQLADSNIELYSEIDERERIEKQMAYLAEHDSLTGLVNRNALKRILGEWLETESPHKKAALLFIDLDRFKEVNDALGHTVGDELLRRVARRITKLAPKGSVLARAGGDEFLLAIAKPDSRESIIKLSEQMLQALDTHFFVDVYELFISASIGVTFADDADFNAEYFIRNADTALYQAKEHGRNTYKVYDKAIHRDLTKKLELVKRLRHAVSKQQLTVYYQPKVELGSRRISGLEALVRWVDDDGSIIPPDEFIPLAEDTGLIIPISEYVMEEAFLQLKQWHELGFDELSIAINISGKQLHLADLVDDIMERVNEAQIPPNKVELELTEQVFIENIQSHTRFMHSVREQGMSLAIDDFGVGYSSLSYLKNFPVTSLKIDRSFVRDLPHNEDDATITQTIISLARNLNLQLVAEGIETEEQVEFLLQRECSTGQGFLFSKPVPARQITELLQQYKGLIPIQIA	failed
MASAHTTQTPFNRLLLTGAAGGLGKVLRETLRPYSHILRLSDIAEMAPAVGDHEEVQVCDLADKDAVHRLVEGVDAILHFGGVSVERPFEEILGANICGVFHIYEAARRHGVKRVIFASSNHVIGFYKQNETIDAHSPRRPDSYYGLSKSYGEDMASFYFDRYGIETVSIRIGSSFPEPQNRRMMSTWLSFDDLTRLLERALYTPDVGHTVVYGVSDNKTVWWDNRFASKLDYAPKDSSEVFRAKVDAQPMPADDDPAMVYQGGAFVASGPFGDK	failed

— a protein production outcome set (Wang et al. 2014)
